The target in data set [1] is T1, Exd51A (ExdN51A);Hth (in heterodimer) (Drosophila melanogaster?;Drosophila …, UniProt P40427;O46339 1-376;1-487, N291A|).
T1 sequence 1: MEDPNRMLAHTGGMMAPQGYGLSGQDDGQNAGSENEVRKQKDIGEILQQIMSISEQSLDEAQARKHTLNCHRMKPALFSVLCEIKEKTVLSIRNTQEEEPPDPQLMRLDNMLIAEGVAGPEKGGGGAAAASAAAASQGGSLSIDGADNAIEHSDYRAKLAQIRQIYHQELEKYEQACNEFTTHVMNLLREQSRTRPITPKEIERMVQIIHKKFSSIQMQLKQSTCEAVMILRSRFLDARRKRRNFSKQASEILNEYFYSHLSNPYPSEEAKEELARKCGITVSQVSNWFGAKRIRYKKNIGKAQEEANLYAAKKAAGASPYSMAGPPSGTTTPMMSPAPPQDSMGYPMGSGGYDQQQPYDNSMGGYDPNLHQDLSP
T1 sequence 2: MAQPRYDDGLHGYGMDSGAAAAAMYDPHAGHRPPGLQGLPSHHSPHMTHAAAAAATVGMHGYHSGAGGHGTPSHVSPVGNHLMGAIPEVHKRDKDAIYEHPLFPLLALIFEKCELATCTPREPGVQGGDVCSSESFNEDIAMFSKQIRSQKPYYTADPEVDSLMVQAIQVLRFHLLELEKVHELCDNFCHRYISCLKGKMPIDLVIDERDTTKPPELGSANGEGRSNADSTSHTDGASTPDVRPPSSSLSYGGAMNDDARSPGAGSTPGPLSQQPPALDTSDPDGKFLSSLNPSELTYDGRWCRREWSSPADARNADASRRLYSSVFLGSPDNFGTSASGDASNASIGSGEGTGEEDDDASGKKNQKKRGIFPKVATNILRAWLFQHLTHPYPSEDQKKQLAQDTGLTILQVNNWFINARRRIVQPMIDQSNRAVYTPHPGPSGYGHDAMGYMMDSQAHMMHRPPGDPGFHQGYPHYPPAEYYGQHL
In words: EMSA; 200 nM heterodimer, no Abd-A; no significant binding; Native PAGE EMSA, probe 0.36 uM, triplicate; buffer, salt, pH and temperature not given (as previously described). Further probes (single/paired sites, Hox point mutants; percent bound) only in S4 and S5 Figs, not in the material, number of rows unknown. The conditions noted are these: protein: recombinant;recombinant; tags: ;His; copies: 1;1.

For data set [2], the target named is Abd-A;Exd51A (ExdN51A);Hth (in heterodimer) (Drosophila melanogaster?;Drosophila …, UniProt P29555;P40427;O46339 261-590;1-376;1-487, |N291A|). The experiment in a line: EMSA; Abd-A 37.5-300 nM with 200 nM ExdN51A/Hth; significant cooperative complex; Native PAGE EMSA, probe 0.36 uM, triplicate; buffer, salt, pH and temperature not given (as previously described). Further probes (single/paired sites, Hox point mutants; percent bound) only in S4 and S5 Figs, not in the material, number of rows unknown. The conditions noted are these: protein: recombinant;recombinant;recombinant; tags: His;;His; copies: 1;1;1.
Abd-A;Exd51A (ExdN51A);Hth (in heterodimer), sequence (P29555 261-590, stated change not applied, one chain of several): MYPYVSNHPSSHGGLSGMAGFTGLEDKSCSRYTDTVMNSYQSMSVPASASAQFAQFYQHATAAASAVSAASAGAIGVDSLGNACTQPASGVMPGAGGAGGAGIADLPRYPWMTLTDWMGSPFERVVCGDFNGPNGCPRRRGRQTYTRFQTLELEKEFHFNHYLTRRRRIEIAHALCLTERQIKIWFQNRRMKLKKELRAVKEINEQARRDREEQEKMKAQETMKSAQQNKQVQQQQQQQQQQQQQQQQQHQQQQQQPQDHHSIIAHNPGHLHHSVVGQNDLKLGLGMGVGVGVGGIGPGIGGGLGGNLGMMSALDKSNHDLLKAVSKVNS

In data set [3] the target is Abd-A;Exd (in Exd/Hth heterodimer);Hth (in heterodimer) (Drosophila melanogaster?;Drosophila …, UniProt P29555;P40427;O46339 261-590;1-376;1-487, ||). The experiment in a line: EMSA; Abd-A 37.5-300 nM with 75 nM Exd/Hth; highly cooperative, third slower complex; Native PAGE EMSA, probe 0.36 uM, triplicate; buffer, salt, pH and temperature not given (as previously described). Further probes (single/paired sites, Hox point mutants; percent bound) only in S4 and S5 Figs, not in the material, number of rows unknown. The conditions noted are these: protein: recombinant;recombinant;recombinant; tags: His;untagged;His; copies: 1;1;1.
Abd-A;Exd (in Exd/Hth heterodimer);Hth (in heterodimer), sequence (P29555 261-590, one chain of several): as the sequence (P29555 261-590, stated change not applied, one chain of several) above

B1: DCRE wild-type full-length probe (dsDNA)
DNA 1: GGAATTTATGTCCGACAATATTTGGGAAATTAAATCATTCCCGCGGACAGTTTTATAGTGCGGGCGTGGC
DNA 2: GCCACGCCCGCACTATAAAACTGTCCGCGGGAATGATTTAATTTCCCAAATATTGTCGGACATAAATTCC
As for B1, the binding result in data set [1] was “no binding”; in data set [2], “binds”; in data set [3], “binds”.

(Values after publication PMC4825978, “A Hox Transcription Factor Collective Binds a Highly Conserved Distal-less cis-Regulatory Module to Generate Robust Transcriptional Outcomes”.)
